Reference: publication PMC7591906, “pHLIP ICG for delineation of tumors and blood flow during fluorescence-guided surgery” (Scientific Reports, 2020)
Peptide text beside a SMILES is read from it. * marks the point of attachment. X1 = CC1(C)C(/C=C/C=C/C=C/C=C2/N(CCCCCC(=O)NCCN3C(=O)CC(*)C3=O)c3ccc4ccccc4c3C2(C)C)=[N+](CCCCS(=O)(=O)[O-])c2ccc3ccccc3c21

Assays:
[1] = system: MDA-MB-231, 4T1, A549, LLC, M4A4, HeLa, UM-UC3 and LNCaP tumors; assay: Tumor targeting, NIR fluorescence imaging in different tumor models; assay type: in vivo, athymic female nude mice; conditions: 24 h after single i.v. 0.5 mg/kg, 8 tumor models, Stryker clinical imaging system, skin removed
Experimental: (§1) Targeting of murine and human tumors was shown in 8 different tumor models in athymic female nude mice (strain Hsd Athymic Nude-Foxn1nu) ranging in age from 5 to 6 weeks (obtained from Envigo RMS, Inc). The following tumors were established by subcutaneous injection of 1 x 10^6 cells/0.1 ml/flank in flanks of athymic nude mice: HeLa (humans cervical adenocarcinoma), M4A4 (human epithelial carcinoma), 4T1 (murine breast tumor), A549 (human lung carcinoma), LLC (murine Lewis Lung carcinoma), UM-UC3 (human urinary bladder cancer), and 4 x 10^6 cells/0.1 ml/flank of LNCaP tumor (human prostate cancer). Human MDA-MB-231 (breast adenocarcinoma) tumors were established by injections of 1 x 10^6 cells/0.05 ml in the mammary fat pad. […] Finally, surgery was carried out under fluorescence-guidance to remove tumor and to image the tumor bed using the Stryker SPY-PHI handheld clinical imaging system.

[2] = cited from earlier work
Excerpt: Since pHLIP peptides offer a unique approach to the targeting of a spectrum of tumor subtypes, we were motivated to develop a fluorescent pHLIP candidate in order to improve the surgical resection of tumors guided by fluorescence. After testing a variety of fluorescent dyes with pHLIP peptides, we chose a widely used clinical fluorescent dye, indocyanine green (ICG). In addition to its long record of safety, ICG was chosen to couple to pHLIP peptide as a clinical imaging candidate for two main reasons: first, the fluorescence of pHLIP ICG is enhanced about 20 times when pHLIP tethers ICG t ...

implanted tumors = assay: Fluorescence-guided resection of tumors, dose finding; assay type: in vivo, mice; conditions: tail vein, doses 0.5 to 2.5 mg/kg, resection at 24 and 48 h, Stryker SPY-PHI
Experimental: as §1

[3] = Biodistribution, %ID/g estimated from tissue/organ homogenates; assay type: in vivo, BALB/c mice; conditions: BALB/c, mouse, small and large intestines, bone, skin, muscle, prostate, iv, 0.5 mg/kg; all time points; estimate; read-out: Amount in small and large intestines, bone, skin and muscle (and prostate)
Experimental: The fluorescence signals in organs and tissue were also measured in the tissue/organ homogenates and compared with the signals from the control tissue/organ homogenates (collected from control mice) mixed with known amounts of pHLIP ICG. Samples of about 100 mg of tissue were homogenized with 2.5x (about 250 µL) volumes of DMSO using BioMasher II disposable homogenizers (DiagnoCine, LLC). 30 µl of each homogenate was placed into a 384-well plate and imaged using an Odyssey IR scanner (Li-Cor Biosciences). Tissue homogenates of control mice mixed with known concentrations of pHLIP ICG were used to establish the calibration curve.

[4] = Stability of pHLIP ICG formulations in solution (analytical HPLC); assay type: physicochemical; conditions: protected from light
Experimental: Stability studies were performed with pHLIP ICG formulations in PBS and PBS containing 5% DMSO or 5% Ethanol (vol/vol). The tumor targeting capability in mice is independent of formulation. Formulation of pHLIP ICG in PBS/5% Ethanol was used in PoC animal studies, and in toxicity studies on mice, rats and dogs. For the PBS/5%DMSO formulation 1 mg of the lyophilized powder of pHLIP ICG was dissolved in 75 µl of DMSO (to make 3.2 mM solution), then 10 µl of 3.2 mM stock was mixed with 190 µl PBS to make a 0.16 mM solution of pHLIP ICG (5% DMSO). For the PBS/5%Ethanol formulation, the lyophilized powder of pHLIP ICG was dissolved at a concentration of 1.6 mg/ml in PBS/5% Ethanol solution. Finally, the formulation selected for human use was prepared by dissolving the lyophilized powder of pHLIP ICG at a concentration of 0.8 mg/ml in PBS. All formulations were kept at room temperature and protected from light. The aliquots were taken at 0.5 or 1, 3, 6, 24, 48 and 72 hours (102 hrs for pHLIP ICG dissolved in PBS) for analytical HPLC analysis using a Zorbax SB-C18 column (4.6 x 250 mm, 5 µm) with a binary solvent system using a […] water and acetonitrile gradient with 0.05% TFA over 25 min. […] Formulation of pHLIP ICG in PBS was stable in solution for 4 days kept at RT.

## CC(C)C[C@H](NC(=O)[C@H](Cc1ccc(O)cc1)NC(=O)[C@H](C)NC(=O)[C@H](CCCNC(=N)N)NC(=O)[C@H](Cc1c[nH]c2ccccc12)NC(=O)[C@@H]1CCCN1C(=O)[C@H](CC(N)=O)NC(=O)[C@H](CCC(N)=O)NC(=O)[C@H](CC(=O)O)NC(=O)[C@H](CC(=O)O)NC(=O)[C@H](CSC1CC(=O)N(CCNC(=O)CCCCCN2/C(=C/C=C/C=C/C=C/C3=[N+](CCCCS(=O)(=O)[O-])c4ccc5ccccc5c4C3(C)C)C(C)(C)c3c2ccc2ccccc32)C1=O)NC(=O)[C@H](C)N)C(=O)N[C@@H](CC(=O)O)C(=O)N[C@@H](CC(C)C)C(=O)N[C@@H](CC(C)C)C(=O)N[C@@H](Cc1ccccc1)C(=O)N1CCC[C@H]1C(=O)N[C@H](C(=O)N[C@@H](CC(=O)O)C(=O)N[C@H](C(=O)N[C@@H](CC(C)C)C(=O)N[C@@H](CC(C)C)C(=O)N[C@@H](CC(C)C)C(=O)N[C@@H](CC(=O)O)C(=O)N[C@@H](CC(C)C)C(=O)N[C@@H](CC(C)C)C(=O)N[C@@H](Cc1c[nH]c2ccccc12)C(=O)N[C@@H](C)C(=O)O)[C@@H](C)O)[C@@H](C)O (stereo partly drawn) [pHLIP ICG] (H-AC(X1)DDQNPWRAYLDLLFPTDTLLLDLLWA-OH)
[1]
  Tumor targeting: Excellent tumor targeting
[2]
  Fluorescence enhancement when tethered to the membrane vs aqueous solution: about 20 times
Implanted tumors
  Minimal dose sufficient for successful visualization of tumors: 0.5 mg/kg
[3]
  tissue uptake: < 2 %ID/g
[4]; PBS, PBS/5% DMSO, PBS/5% Ethanol, up to 72 hours at room temperature, analytical HPLC
  Stability (purity) of all formulations: > 95%
[4]; reconstituted in PBS (0.8 mg/ml), room temperature, analytical HPLC Zorbax SB-C18
  Time stable in solution: 4 days
